This note sets out measurements from the RNAGym collection of RNA variant scans (doi:10.1073/pnas.2313332121).

Variants at the floor of the assay were thinned out. A value given as a limit tells only on which side of the number the result lay.

B1: TPR 5TU (parent)
chain: GGAUCUUCUCGAUCUAACAAAAAAGACAAAUCUGCCACAAAGCUUGAGAGCAUCUUCGGAUGCAGAGGCGGCAGCCUUCGGUGGCGCGAUAGCGCCAACGUUCUCAACUAUGACACGCAAAACGCGUGCUCCGUUGAAUGGAGUUUAUCAUG

This data set covers variants of B1. Description: polymerase ribozyme fitness, log enrichment relative to wild type (log ratio); higher = more active; in vitro selection for triplet polymerase activity. An outline of the steps: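 Mutant libraries were PCR-built and transcribed for each subunit of a heterodimeric triplet polymerase ribozyme and selected for one round in triplicate at −7 °C, frozen, before gel excision of extended constructs and streptavidin-bead capture. Input and output libraries were Illumina-sequenced, keeping genotypes with ≥10 input reads and ≥1 read per output. Fitness is a logarithmic ratio of genotype to wild-type enrichment, in base 2, using inverse-variance-weighted replicate averages.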
In the case of G46U U82C C95U, the “polymerase ribozyme fitness (log ratio)” value was -0.628. On to G46C C96A C123G, for which the “polymerase ribozyme fitness (log ratio)” value is -1.48.

As to A47C C96U A107U, the “polymerase ribozyme fitness (log ratio)” value is -3.57.

Consider A47G A91G A97G G112C, for which the “polymerase ribozyme fitness (log ratio)” value is not above -4.2.

As for G48A G59C C63U G86C, the “polymerase ribozyme fitness (log ratio)” value was -3.98.

G48A G86A A89C G94A U151G: the “polymerase ribozyme fitness (log ratio)” value is not above -4.2. Then A47U C85A U139G, with -1.24. As for G48A A52G G83U U101A C131A U148A, the “polymerase ribozyme fitness (log ratio)” value was not above -4.2.

Turning to A47U A60C C103G A107G, the “polymerase ribozyme fitness (log ratio)” value was not above -4.2.

A47U U56A C99G A121C: the “polymerase ribozyme fitness (log ratio)” value is -2.02. Then G48A G136U, with -2.5; and A47C U53C C57A C72G A73C U78C C79U C96G C129A A150G, with not above -4.2; and A47C C93A A106U U109G, with not above -4.2.

A47U G141A: the “polymerase ribozyme fitness (log ratio)” value is -1.46. Then A47U U53A, with -1.33; and G46U G71C C95U A97U A115C G136U, with not above -4.2; and A47C G48U C76G C96U A113C, with not above -4.2. In the case of A47G A52U G68U C79A C93U C99A G141C A142G G143U, the “polymerase ribozyme fitness (log ratio)” value was not above -4.2. Then A47C A49G G83A G140A, with not above -4.2.

Regarding A47C A60G C93A C95A C96U U139G, the “polymerase ribozyme fitness (log ratio)” value was not above -4.2. Then G48A G80C G94A C96U C99G, with -3.97; and G46C G59A U82A C85G A110C A113U G126U G128A, with not above -4.2. For A47U C96A A97G A122C, the “polymerase ribozyme fitness (log ratio)” value is -1.28. Then A47C U102G A115U A142G U148A, with not above -4.2; and A47G A91G A97G A98C U134G U139A, with not above -4.2; and G48A C57A U144G, with 0.472. Next, A47G G92C C114U: -2.53; A47C A66C G83C U104C G126C U130C C132G A138C: not above -4.2. Then G46C C54U A66G G94A C95A G143A, with not above -4.2; and G46C A66C C85U C93G C118U, with not above -4.2.

In the case of A47G U55A A91G, the “polymerase ribozyme fitness (log ratio)” value was -2.78. Turning to G48A A106G, the “polymerase ribozyme fitness (log ratio)” value is -1.77. With A47C G62U C99G G143U, the “polymerase ribozyme fitness (log ratio)” value was not above -4.2. Then G48A U55G A142C, with -2.84.

Regarding G48A C57U G83C U101C, the “polymerase ribozyme fitness (log ratio)” value was -2.63. Next, G46U A120U: -0.29. Next, A47C C57A G94A U144G: 1.12; A47C C57U G67C C69A A91U C149U: not above -4.2; G46U G83U A91U A106U U148C: not above -4.2. Next, A47G G140A: -3.51. On to A47C C57A C93U, for which the “polymerase ribozyme fitness (log ratio)” value is -1.3.

Consider A47C U56A C87A C93G A121U C132G G143A U144C, for which the “polymerase ribozyme fitness (log ratio)” value is not above -4.2. Then G46C C87U A98G G117U A142U, with not above -4.2. Next, A47G A52G U56A C87G: not above -4.2; A47U G48C: -1.39; G48A C57A G92A: -3.32. Then G48C A49C A122U, with -3.93; and A47G A115C, with -0.724; and G46C U61G G81C C114U C116G A147G, with not above -4.2. As to A47C C54U U55A U101C, the “polymerase ribozyme fitness (log ratio)” value turned out to be 0.0498.

With G48A A52U G86U, the “polymerase ribozyme fitness (log ratio)” value was not above -4.2. Then A47U G50C, with -3.22. Turning to G48A C51U C54A U82G A120U, the “polymerase ribozyme fitness (log ratio)” value is -3.66.

A47U C85U: the “polymerase ribozyme fitness (log ratio)” value is -0.698. Then A47G C87A G126A, with not above -4.2. Next, A47C A73G: -0.266.

Regarding A47U U56A C95U A119U U135A, the “polymerase ribozyme fitness (log ratio)” value is -2.15. Next, A47U C51U A52C U53G U61A A64U C76U G83U U146C: not above -4.2; G46U C99A: -3.99; A47U G50A G84U A98U: -3.28. Then G48A G83U U134C, with -1.42; and A47G A52G C87U A98G, with -1.52; and A47C G92U C105U C131G, with not above -4.2.

G48A A52U C75U A91G: the “polymerase ribozyme fitness (log ratio)” value was not above -4.2. Then A47C C85A C96U A97U, with not above -4.2; and G48A C149U, with -1.46; and A47C G86A C149U, with -1.64. With G46C A49C U56A C57U G62A C63A C69U G86C C99U G141C U145G C149U A150U, the “polymerase ribozyme fitness (log ratio)” value is not above -4.2. Then A47G G84U C149U, with -3.35. G48A G59A G88C A106G U148C: the “polymerase ribozyme fitness (log ratio)” value is not above -4.2. Next, G48A C75U C87A C93G: not above -4.2; G48C A49C C63U G86A C149A: not above -4.2; G46A U135G: -3.27. Next, G48A C76G C87A U90A U146A: not above -4.2; A47G A52C A73G C76G C87G A98G: not above -4.2; G48A G50C: -3.83. Then G46U C54U A73U, with -3.31; and G48A C51U, with -1.05; and A47C A89G C118A G133U, with not above -4.2. For G46C C57A A66U A113C, the “polymerase ribozyme fitness (log ratio)” value is not above -4.2.

As to G48A G67A U77C A97U U145G A150U, the “polymerase ribozyme fitness (log ratio)” value is not above -4.2. As to A47U G80A A91C, the “polymerase ribozyme fitness (log ratio)” value was not above -4.2. Next, G48A G88A U134C U144G: not above -4.2; A47C U61A G140U U145G: not above -4.2.

With A47C A119G, the “polymerase ribozyme fitness (log ratio)” value amounted to 0.0948.

Regarding A47U A49G G141A U145A, the “polymerase ribozyme fitness (log ratio)” value was not above -4.2. Next, G48A C57A U127A A142G G143A: not above -4.2. With A47G U55G, the “polymerase ribozyme fitness (log ratio)” value was 0.325. For G46A U55A, the “polymerase ribozyme fitness (log ratio)” value is -0.993. As to A47U G94A U134G, the “polymerase ribozyme fitness (log ratio)” value was -1.69. Then G48C A49C A60G U61A A66G C87A, with not above -4.2; and G46U U56A, with -0.107. Then A47C C54U G83U A142G, with -2.18; and G46U G88U, with not above -4.2; and A47U G126C, with -0.0812. Next, A47C U82A: -0.366.

Regarding A47U G84C C93U, the “polymerase ribozyme fitness (log ratio)” value was not above -4.2.

With G46C U61G U78A C93A, the “polymerase ribozyme fitness (log ratio)” value was not above -4.2. Next, A47G G50A C85U C99A G124C U127G: not above -4.2; G48A G50A C54A C93G U104A: not above -4.2. Next, A47C G84A: -0.485; A47G G81C G92C C95A A142G: -2.95. Next, A47C U78A C131U U145A: not above -4.2; A47C C95U: 0.141. Regarding A47G A52C A97U, the “polymerase ribozyme fitness (log ratio)” value was -1.2. Next, A47U A89G C116U G133U A138C: -4.12; G48A C54A U55G G58U A97G: -3.22; G46C A49U C72U C116U: not above -4.2.

Turning to A47U G50C C93A C96G, the “polymerase ribozyme fitness (log ratio)” value is not above -4.2. Turning to A47G C63G G74C A120G, the “polymerase ribozyme fitness (log ratio)” value was not above -4.2. Then A47C G83U, with -1.01; and A47U G68U, with not above -4.2; and A47C C57A G84U A89C, with -1.5. Next, G48A U55A C57G A66U G83C U90A C108U G124U: not above -4.2; A47G G84C: -2.56. Regarding A47G G84U, the “polymerase ribozyme fitness (log ratio)” value is -1.59. As to A47C G50C, the “polymerase ribozyme fitness (log ratio)” value was -4.1.

With A47G A49C A52G G81U G83C U134A, the “polymerase ribozyme fitness (log ratio)” value was not above -4.2. Regarding A47C U77G U130G, the “polymerase ribozyme fitness (log ratio)” value is not above -4.2. Next, A47G A49U C103G: not above -4.2; A47C G74U A107G A122U: not above -4.2. In the case of A47U C57A, the “polymerase ribozyme fitness (log ratio)” value turned out to be 0.807. Then G46C C114U, with -3.67. Then A47G C123G U151C, with -4.15. Then A47C A73U C118A, with -3.14. As to A47G C63G G92U C93U, the “polymerase ribozyme fitness (log ratio)” value was -1.34. Then A47U G50C A121U, with -3.92; and A47G G59C G92U C99A C118G, with -3.37; and G48A C85A C123U U134C, with -1.46. Then A47U A64G G67A, with not above -4.2; and A47U U101G C116G, with -2.38. Next, G46C G50U G68A C76A C85U U130G: not above -4.2. Turning to A47C G50C U53A A89G A106U A120C G136A, the “polymerase ribozyme fitness (log ratio)” value was not above -4.2. Then G48A G83C, with -1.78; and G46U C85G, with -1.84; and G46A G84A A119C G136A A150G, with -3.68. On to G46U C51G C54U, for which the “polymerase ribozyme fitness (log ratio)” value is not above -4.2.

As for G48A C85G A98U C99U, the “polymerase ribozyme fitness (log ratio)” value was -3.36.

With A47G G58C G112C, the “polymerase ribozyme fitness (log ratio)” value is -3.97. Then A47U G48C G71C G94A C108G G124C G141A, with not above -4.2. Next, A47C G50U G58U A91G A97U U102A: not above -4.2; A47U C75U: -1.41. Next, G48A A107G: -4.08; A47G C54G: -0.785.

In the case of A47G G86U G88C U109G, the “polymerase ribozyme fitness (log ratio)” value was not above -4.2.

As for G46C U144C, the “polymerase ribozyme fitness (log ratio)” value was -1.66. Then G48A A113G A147G G152C, with not above -4.2; and A47G C114U, with -2.4; and A47G G84U U135A, with -2.45.

Take A47C C85G U134G: the “polymerase ribozyme fitness (log ratio)” value is -4.19. Then A47G G50C U82G, with not above -4.2; and G48A U61A C105G, with not above -4.2. Next, A47C C69U G80C: not above -4.2; G46C U109G: -1.81. Then G46A U55A G58C G84C, with -2.84; and A47U C54U C114U, with -2.94; and A47U A60C C125U, with -2.64. Take A47U G48A U146G: the “polymerase ribozyme fitness (log ratio)” value was -2.73. For the variant A47G C75G A107U U135A U148C, the “polymerase ribozyme fitness (log ratio)” value is not above -4.2.

A47C A60U G80U C93U: the “polymerase ribozyme fitness (log ratio)” value was not above -4.2. Consider G46C G86A, for which the “polymerase ribozyme fitness (log ratio)” value is -1.59. Next, A47U A121U A147C C149U: -3.04; G48A C85A A89U A98U A113G G117A: not above -4.2; A47G C87U: 0.257. For the variant A47C G50A U102C U146A, the “polymerase ribozyme fitness (log ratio)” value is -2.55. Next, G46U A52G C93G: -4.03. Next, A47G A52G G58A A60G G62C U78G G88C: not above -4.2.
